From paper PMC9456187, “The Ambivalence of Connexin43 Gap Peptides in Cardioprotection of the Isolated Heart against Ischemic Injury” (International Journal of Molecular Sciences, 2022)

B1: Gap27 (peptide)
peptide: SRPTEKTIFII
notes: connexin43 mimetic peptide, 11 amino acids, analogue of the second extracellular loop (EL2) of connexin43; The peptide was tested on the RadA-EL1 construct; also called G27; connexin mimetic peptide Gap27; source: bought: Pepnome Inc., Hong Kong (peptide)
B2: Gap26 (peptide)
peptide: VCYDKSFPISHVR
notes: connexin43 mimetic peptide, 13 amino acids, analogue of the first extracellular loop (EL1) of connexin43; The peptide was tested on the RadA-EL2 construct; also called G26; connexin mimetic peptide Gap26; source: bought: Pepnome Inc., Hong Kong (peptide)

What was measured:
[1] = molecular target: RadA-EL1 (extracellular loop 1 of connexin43 grafted into the monomeric ATPase domain of Pyrococcus furiosus … (Pyrococcus furiosus | , Only the grafted connexin43 EL1 loop (the binding part) is given. It was displayed on the His-tagged monomeric RadA ATPase domain of Pyrococcus furiosus, treated here as a carrier. The scaffold limits)); experiment: SPR; Biacore T200; his-tagged RadA-EL1 captured on NTA surface (about 200 RU) as ligand, Gap27 injected as analyte at 30 µL/min; 25 °C; 50 mM HEPES pH 7.5, 500 mM NaCl, 0.005% Tween-20; reference channel without nickel; 1:1 binding model; settings: both partners purified
Chain of RadA-EL1 (extracellular loop 1 of connexin43 grafted into the monomeric ATPase domain of Pyrococcus furiosus … (Pyrococcus furiosus | , Only the grafted connexin43 EL1 loop (the binding part) is given. It was displayed on the His-tagged monomeric RadA ATPase domain of Pyrococcus furiosus, treated here as a carrier. The scaffold limits)) (chain, as listed by the source): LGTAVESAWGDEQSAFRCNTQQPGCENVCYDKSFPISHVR

[2] = molecular target: RadA-EL2 (extracellular loop 2 of connexin43 grafted into the monomeric ATPase domain of Pyrococcus furiosus … (Pyrococcus furiosus | , Only the grafted connexin43 EL2 loop (the binding part) is given. It was displayed on the His-tagged monomeric RadA ATPase domain of Pyrococcus furiosus, treated here as a carrier. The scaffold limits)); experiment: SPR; Biacore T200; his-tagged RadA-EL2 captured on NTA surface (about 200 RU) as ligand, Gap26 injected as analyte at 30 µL/min; 30 °C; 50 mM HEPES pH 7.5, 500 mM NaCl, 0.005% Tween-20, 0.1 mM TCEP; reference channel without nickel; 1:1 binding model; settings: both partners purified
Chain of RadA-EL2 (extracellular loop 2 of connexin43 grafted into the monomeric ATPase domain of Pyrococcus furiosus … (Pyrococcus furiosus | , Only the grafted connexin43 EL2 loop (the binding part) is given. It was displayed on the His-tagged monomeric RadA ATPase domain of Pyrococcus furiosus, treated here as a carrier. The scaffold limits)) (chain, as listed by the source): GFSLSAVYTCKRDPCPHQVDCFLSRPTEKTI

Row | Binder | Kd [1] [µM] | koff [1] [s⁻¹] | Kd [2] [µM] | koff [2] [s⁻¹]
1 | B1 | 6 | 0.061 | – | –
2 | B2 | – | – | 8 | 0.0043
